Target: the molecule itself
Assay: SEC

B1: G266DΔGAF–His (domain or fragment, Escherichia coli K12, UniProt P37013 171-504, looked up)
chain: MLPGDATPFEAVKQTQMIGLSPGMTQLKKEIEIVAASDLNVLISGETGTGKELVAKAIHEASPRAVNPLVYLNCAALPESVAESELFGHVKGAFTDAISNRSGKFEMADNGTLFLDEIGELSLALQAKLLRVLQYGDIQRVGDDRCLRVDVRVLAATNRDLREEVLAGRFRADLFHRLSVFPLSVPPLRERGDDVILLAGYFCEQCRLRQGLSRVVLSAGARNLLQHYSFPGNVRELEHAIHRAVVLARATRSGDEVILEAQHFAFPEVTLPTPEVAAVPVVKQNLREATEAFQRETIRQALAQNHHNWAACARMLETDVANLHRLAKRLGLKD
  binding result: binds
